Measurements published in patent US20040018515A1, “Compositions selective for adenosine diphosphate and methods of using same” (priority 2002, published 2004).

Assays:
[1] = ADP SPA screening of ADP aptamer clones; format: binding; settings: 1 μM 3H-ADP; vs. clone R0; FIG. 27
Description: Mini-prepped plasmid DNA and corresponding sequence (Table 4) were obtained from Lark Technologies. Any sequence that differed by more than two nucleotides from all other ADP aptamer clones was considered to be unique for the purposes of screening. “Unique” clones were PCR amplified from purified plasmid DNA using the original 5′-primer used in the selections (JD18.25B; SEQ ID NO: 17) and a new 3′-primer, 5′-[…]-3′ (JD18.122.A; 200 nM scale, 46-mer) Tm ˜58° C.; SEQ ID NO: 72). This primer adds a 3′-sequence tag to the transcribed RNA molecules which allows the aptamer clones to be immobilized onto the surface of an NEN streptavidin coated flash plate via base pairing with a biotinylated DNA capture oligo (MK08.112A; 5′-biotin-[…]-3′; SEQ ID NO: 73).
NEN flashplates used in the ADP SPA screen and competition binding studies were prepared by incubating the individual wells with 40 pmol of MK08.112A biotinylated capture probe in 22 μl of PBS Buffer: BupH (0.05% tRNA, 0.025% Tween 20) with and shaking at 650 RPM, 15 min. […] Treated wells were incubated with 30 μl of 1 μM ^3H-ADP in 1× Selection Buffer for 30 s with shaking at 650 RPM and then assessed for ADP-mediated signal by quantification on a TopCount, ^3H SPA scintillation counter.
Clones were initially assessed for the ability to yield ADP-mediated signal in the ADP SPA.

[2] = SPA KD determination for ADP aptamer F01, nucleoside analogs and mimetics; format: binding; settings: SPA competition; KD estimated from IC50; FIG. 30
Description: (§1) The specificity of the ADP aptamer clone F01 was characterized using a variety of nucleoside analogues and mimetics as shown in FIG. 30. NEN flashplates used in the ADP assay were prepared as described above using 150 pmol ADP clone F01 ( in 20 μl 1×PBS incubated in designated wells with shaking at 650 RPM for 30 min). Excess F01 aptamer was removed by washing with 1×PBS 3-times and blotting as before. Treated wells were incubated with 30 μl of 1 μM ^3H-ADP in 1× Selection Buffer for 30 s with shaking at 650 RPM and then assessed for ADP-mediated signal by quantification on a TopCount, ^3H SPA scintillation counter. Thereafter, 1 μl of each test compound was added to the appropriate wells and the plate shaken at 650 RPM for 30 s prior to recounting on TopCount, ^3H SPA scintillation counter. Titration of each test compound was continued with subsequent 1 μl additions up to 10 mM final concentration. The dissociation constant KD was estimated from the IC50 of the competitive binding curve.

[3] = SPA KD determination for ADP aptamer F01, ATP; format: binding
Description: as §1
This impurity confounds precise determination of ADP aptamer selectivity by SPA competition.

[4] = SPA competitive binding of ADP aptamer clones (cold ADP vs other adenosine nucleoside derivatives); settings: competitive binding analysis; FIG. 29
Description: NEN flashplates used in the ADP SPA screen and competition binding studies were prepared by incubating the individual wells with 40 pmol of MK08.112A biotinylated capture probe in 22 μl of PBS Buffer: BupH (0.05% tRNA, 0.025% Tween 20) with and shaking at 650 RPM, 15 min. Excess capture probe was removed from the wells by washing with 1×PBS 3 times and inverting plate with force to remove liquid and blotting them dry on paper towels. Crude transcription of RNA transcribed with capture probe sequence (5 μl) in 25 μl 1×PBS was incubated in designated wells with shaking at 650 RPM for 30 min. Excess aptamer was removed by washing with 1×PBS 3 times and blotting as before. Treated wells were incubated with 30 μl of 1 μM ^3H-ADP in 1× Selection Buffer for 30 s with shaking at 650 RPM and then assessed for ADP-mediated signal by quantification on a TopCount, ^3H SPA scintillation counter.
The best ADP binders, e.g., clones 1, 2, 11, 12, 14, and 16 were subsequently tested for ADP/ATP discrimination by competition with either cold ADP or ATP (FIG. 28). Clones such as F01 (clone #11), whose SPA signal was competed off with the lowest concentration of ADP, i.e., the best ADP binder, and correspondingly the highest concentration of ATP, i.e., the worst ATP binder, were considered to be ADP selective.

B1: GGACGGATCGCGTGATGACGAGGGGAATGAACACCCCGGACAATCAGACACGGTCATCTCACACACCTCCCTGA (nucleic acid)
chain: GGACGGATCGCGTGATGACGAGGGGAATGAACACCCCGGACAATCAGACACGGTCATCTCACACACCTCCCTGA
modifications: RNA, all phosphodiester, T or U not given here
ADP-mediated signal in the SPA screening assay above background signal [1]: more than 2.5 fold
KD values of other nucleoside derivatives and mimetics relative to KD for ADP [2]: more than 300 fold
KD for ATP relative to KD for ADP ([3]; SPA competition, KD estimated from IC50): at least 70 fold
selectivity for ADP over ATP relative to what preliminary studies indicated ([3]; after column purification of ATP): approximately 4 fold
selectivity for ADP compared to other adenosine nucleoside derivatives (AMP, ATP, cAMP) [4]: highly selective for ADP
